Article PMC12440816, “Cell cycle regulation has shaped replication origins in budding yeast” (Nature Structural & Molecular Biology, 2025)

Columns and labels:
Mcm3 = molecular target: T1, Mcm3 (Saccharomyces cerevisiae, UniProt P24279 1-971); assay: cryo-EM structure; SH and DH on nucleosome-flanked ARS1 (15 nM) loaded by Orc6-4A ORC (40 nM) pre-phosphorylated by CDK, Cdc6 (40 nM), MCM–Cdt1 (80 nM), 2.2 mM ATP, 30 °C, 30 min; settings: both partners purified
T1 construct: Mcm3 of S. cerevisiae; Subunit of m5, for the subunit pairs of the SH structure; source: subunit of purified MCM–Cdt1 (previously described methods)
T1 sequence (P24279 whole entry): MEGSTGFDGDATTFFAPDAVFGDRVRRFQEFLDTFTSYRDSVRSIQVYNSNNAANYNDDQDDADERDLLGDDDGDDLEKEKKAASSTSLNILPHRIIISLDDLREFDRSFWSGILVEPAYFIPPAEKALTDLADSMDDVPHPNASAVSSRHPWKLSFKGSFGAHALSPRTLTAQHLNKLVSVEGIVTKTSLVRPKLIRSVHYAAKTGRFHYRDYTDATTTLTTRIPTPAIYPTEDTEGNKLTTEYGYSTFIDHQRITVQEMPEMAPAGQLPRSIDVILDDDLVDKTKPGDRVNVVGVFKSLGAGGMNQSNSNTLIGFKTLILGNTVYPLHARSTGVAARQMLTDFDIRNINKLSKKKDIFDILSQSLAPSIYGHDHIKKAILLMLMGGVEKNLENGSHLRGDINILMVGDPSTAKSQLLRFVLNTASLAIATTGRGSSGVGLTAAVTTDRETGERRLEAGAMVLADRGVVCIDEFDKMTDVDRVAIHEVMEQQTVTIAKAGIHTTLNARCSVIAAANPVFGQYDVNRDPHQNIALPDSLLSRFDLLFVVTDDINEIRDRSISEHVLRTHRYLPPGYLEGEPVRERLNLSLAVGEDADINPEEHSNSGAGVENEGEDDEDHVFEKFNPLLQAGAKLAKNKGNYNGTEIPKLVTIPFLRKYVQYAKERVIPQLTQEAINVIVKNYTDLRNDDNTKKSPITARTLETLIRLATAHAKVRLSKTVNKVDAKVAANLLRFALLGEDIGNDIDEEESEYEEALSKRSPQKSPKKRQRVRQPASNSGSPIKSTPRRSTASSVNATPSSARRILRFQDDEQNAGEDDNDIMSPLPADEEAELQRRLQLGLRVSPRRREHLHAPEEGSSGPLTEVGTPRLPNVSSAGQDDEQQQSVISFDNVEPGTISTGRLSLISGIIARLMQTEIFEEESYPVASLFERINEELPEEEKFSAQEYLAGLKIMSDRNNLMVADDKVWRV

Mcm4 = molecular target: T2, Mcm4 (Saccharomyces cerevisiae, UniProt P30665 1-933); assay: as above; settings: both partners purified
T2 construct: Mcm4 of S. cerevisiae; Subunit of m5, for the subunit pairs of the SH structure; source: subunit of purified MCM–Cdt1 (previously described methods)
T2 sequence: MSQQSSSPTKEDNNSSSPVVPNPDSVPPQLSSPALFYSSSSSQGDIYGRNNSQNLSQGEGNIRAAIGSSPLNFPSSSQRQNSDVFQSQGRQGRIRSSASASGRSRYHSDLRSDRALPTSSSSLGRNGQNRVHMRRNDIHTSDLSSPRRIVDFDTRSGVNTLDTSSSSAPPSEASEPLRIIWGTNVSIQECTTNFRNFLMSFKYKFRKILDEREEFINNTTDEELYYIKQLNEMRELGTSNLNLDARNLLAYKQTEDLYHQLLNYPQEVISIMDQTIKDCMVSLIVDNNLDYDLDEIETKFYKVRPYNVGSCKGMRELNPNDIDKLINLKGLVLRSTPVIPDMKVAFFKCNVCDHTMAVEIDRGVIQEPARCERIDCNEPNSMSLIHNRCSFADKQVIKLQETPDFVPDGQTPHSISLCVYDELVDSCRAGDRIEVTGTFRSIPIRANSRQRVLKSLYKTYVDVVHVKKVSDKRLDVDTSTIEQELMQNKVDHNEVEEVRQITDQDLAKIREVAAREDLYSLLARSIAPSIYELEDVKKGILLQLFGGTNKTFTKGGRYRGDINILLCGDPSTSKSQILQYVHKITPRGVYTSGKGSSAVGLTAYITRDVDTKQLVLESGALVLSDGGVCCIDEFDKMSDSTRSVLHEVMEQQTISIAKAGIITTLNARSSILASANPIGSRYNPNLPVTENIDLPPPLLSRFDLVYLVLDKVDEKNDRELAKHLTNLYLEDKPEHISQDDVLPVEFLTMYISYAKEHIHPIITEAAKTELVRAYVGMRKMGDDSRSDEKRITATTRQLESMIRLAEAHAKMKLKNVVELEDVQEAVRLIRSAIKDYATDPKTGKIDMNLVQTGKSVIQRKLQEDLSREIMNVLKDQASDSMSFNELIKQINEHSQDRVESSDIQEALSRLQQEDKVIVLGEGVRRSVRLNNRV

binding result (Mcm3): binds
binding result (Mcm4): binds
B1: Mcm7 (natural protein, Saccharomyces cerevisiae)
chain: MSAALPSIQLPVDYNNLFNEITDFLVTFKQDTLSSDATRNENEDENLDAENIEQHLLEKGPKYMAMLQKVANRELNSVIIDLDDILQYQNEKFLQGTQADDLVSAIQQNANHFTELFCRAIDNNMPLPTKEIDYKDDVLDVILNQRRLRNERMLSDRTNEIRSENLMDTTMDPPSSMNDALREVVEDETELFPPNLTRRYFLYFKPLSQNCARRYRKKAISSKPLSVRQIKGDFLGQLITVRGIITRVSDVKPAVEVIAYTCDQCGYEVFQEVNSRTFTPLSECTSEECSQNQTKGQLFMSTRASKFSAFQECKIQELSQQVPVGHIPRSLNIHVNGTLVRSLSPGDIVDVTGIFLPAPYTGFKALKAGLLTETYLEAQFVRQHKKKFASFSLTSDVEERVMELITSGDVYNRLAKSIAPEIYGNLDVKKALLLLLVGGVDKRVGDGMKIRGDINVCLMGDPGVAKSQLLKAICKISPRGVYTTGKGSSGVGLTAAVMKDPVTDEMILEGGALVLADNGICCIDEFDKMDESDRTAIHEVMEQQTISISKAGINTTLNARTSILAAANPLYGRYNPRLSPLDNINLPAALLSRFDILFLMLDIPSRDDDEKLAEHVTYVHMHNKQPDLDFTPVEPSKMREYIAYAKTKRPVMSEAVNDYVVQAYIRLRQDSKREMDSKFSFGQATPRTLLGIIRLSQALAKLRLADMVDIDDVEEALRLVRVSKESLYQETNKSKEDESPTTKIFTIIKKMLQETGKNTLSYENIVKTVRLRGFTMLQLSNCIQEYSYLNVWHLINEGNTLKFVDDGTMDTDQEDSLVSTPKLAPQTTASANVSAQDSDIDLQDA
notes: Mcm7 of S. cerevisiae; Subunit of m5, for the subunit pairs of the SH structure; source: subunit of purified MCM–Cdt1 (previously described methods)
